Measurements from article PMC7144899.

Key:
[1] = target: His-AnaRneN (N-terminal catalytic domain of Anabaena RNase E) (Anabaena PCC 7120); experiment: ITC
[2] = target: AnaRne-GFP (RNase E tagged with GFP at the C-terminus, in situ) (Anabaena PCC 7120) (UniProt Q8YP69); experiment: FRET or BRET
UniProt Q8YP69, sequence (Q8YP69 whole entry): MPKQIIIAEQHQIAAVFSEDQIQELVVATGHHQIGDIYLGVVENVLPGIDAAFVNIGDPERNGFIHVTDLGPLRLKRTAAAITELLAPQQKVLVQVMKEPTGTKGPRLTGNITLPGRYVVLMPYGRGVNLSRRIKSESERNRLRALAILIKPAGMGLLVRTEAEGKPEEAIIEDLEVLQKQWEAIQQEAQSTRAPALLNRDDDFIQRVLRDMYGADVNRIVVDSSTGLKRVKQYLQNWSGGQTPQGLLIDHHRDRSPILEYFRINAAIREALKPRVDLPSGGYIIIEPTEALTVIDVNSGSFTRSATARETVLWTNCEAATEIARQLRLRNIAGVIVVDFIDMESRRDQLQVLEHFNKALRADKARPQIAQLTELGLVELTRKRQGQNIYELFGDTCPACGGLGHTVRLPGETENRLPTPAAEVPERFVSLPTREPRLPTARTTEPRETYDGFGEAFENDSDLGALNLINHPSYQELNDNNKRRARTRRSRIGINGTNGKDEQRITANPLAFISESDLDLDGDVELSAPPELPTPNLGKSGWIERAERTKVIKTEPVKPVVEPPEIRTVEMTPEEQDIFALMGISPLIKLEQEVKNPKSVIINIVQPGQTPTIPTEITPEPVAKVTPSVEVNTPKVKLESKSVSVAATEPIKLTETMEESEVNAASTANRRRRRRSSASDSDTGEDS

Row | Substance | Kd [1] | stoichiometry N [1] | FRET efficiency [2]
1 | Alr1240-Strep (Alr1240 with a C-terminal Strep tag fusion) (enzyme) | 2770 nM | 1 | 
2 | AnaRnb-BFP (RNase II tagged with BFP at the C-terminus, in situ) (enzyme) |  |  | 0.7
